Where no end group is shown, it is not given here.
Biological target: T1, hGOAT-eGFP (human ghrelin O-acyltransferase with C-terminal eGFP and His10 tag) (human) (UniProt Q96T53)
T1 sequence: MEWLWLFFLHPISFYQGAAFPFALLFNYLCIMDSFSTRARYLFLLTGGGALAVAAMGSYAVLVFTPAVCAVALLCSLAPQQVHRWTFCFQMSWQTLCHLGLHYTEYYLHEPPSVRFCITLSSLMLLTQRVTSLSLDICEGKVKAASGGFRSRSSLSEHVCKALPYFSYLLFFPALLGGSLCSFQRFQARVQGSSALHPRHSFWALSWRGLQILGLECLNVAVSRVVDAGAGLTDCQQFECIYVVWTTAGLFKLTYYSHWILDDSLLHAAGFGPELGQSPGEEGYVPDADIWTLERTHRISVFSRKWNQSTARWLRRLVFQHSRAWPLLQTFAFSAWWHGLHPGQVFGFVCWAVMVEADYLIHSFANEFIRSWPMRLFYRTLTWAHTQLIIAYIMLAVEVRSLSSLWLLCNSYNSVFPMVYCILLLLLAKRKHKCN

- ghrelin octanoylation activity of the MEGA-9 solubilisation supernatant of hGOAT-eGFP (HPLC, conversion of the fluorescent peptide substrate to the octanoylated product): 20%
B1: fluorescently labeled ghrelin mimetic peptide GSSFLC-NH2 (acrylodan-labelled) (peptide)
peptide: GSSFLC-NH2
modifications: not fully specified (residue 6); printed as GSSFLC_NH2_; ends and bridges not checked; also: acrylodan label, site not given here

— article PMC10685452
